From paper doi:10.1101/2024.05.31.596772 (2024) come the findings set out here.

As a reminder, the Kd is the concentration at which binding is half-saturated. Low readings indicate higher affinity, high ones lower affinity.

The target of this assay is microtubules (pig (purified from porcine brain)).
Chain of microtubules (pig (purified from porcine brain)) (chain, as listed by the source, chain 1 of 2): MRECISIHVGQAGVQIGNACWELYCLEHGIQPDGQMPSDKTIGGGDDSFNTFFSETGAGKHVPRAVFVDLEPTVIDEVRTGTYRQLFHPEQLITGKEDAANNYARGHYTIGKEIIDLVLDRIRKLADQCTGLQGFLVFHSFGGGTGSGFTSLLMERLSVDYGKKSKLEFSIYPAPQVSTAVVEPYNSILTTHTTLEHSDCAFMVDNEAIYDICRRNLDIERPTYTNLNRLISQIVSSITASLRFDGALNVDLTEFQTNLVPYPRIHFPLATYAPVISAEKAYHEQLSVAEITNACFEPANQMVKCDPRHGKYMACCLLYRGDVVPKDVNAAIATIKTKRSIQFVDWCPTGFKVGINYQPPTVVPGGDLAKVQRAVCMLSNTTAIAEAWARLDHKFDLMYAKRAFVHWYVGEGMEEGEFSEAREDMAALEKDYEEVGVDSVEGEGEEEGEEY
Chain of microtubules (pig (purified from porcine brain)) (chain, as listed by the source, chain 2 of 2): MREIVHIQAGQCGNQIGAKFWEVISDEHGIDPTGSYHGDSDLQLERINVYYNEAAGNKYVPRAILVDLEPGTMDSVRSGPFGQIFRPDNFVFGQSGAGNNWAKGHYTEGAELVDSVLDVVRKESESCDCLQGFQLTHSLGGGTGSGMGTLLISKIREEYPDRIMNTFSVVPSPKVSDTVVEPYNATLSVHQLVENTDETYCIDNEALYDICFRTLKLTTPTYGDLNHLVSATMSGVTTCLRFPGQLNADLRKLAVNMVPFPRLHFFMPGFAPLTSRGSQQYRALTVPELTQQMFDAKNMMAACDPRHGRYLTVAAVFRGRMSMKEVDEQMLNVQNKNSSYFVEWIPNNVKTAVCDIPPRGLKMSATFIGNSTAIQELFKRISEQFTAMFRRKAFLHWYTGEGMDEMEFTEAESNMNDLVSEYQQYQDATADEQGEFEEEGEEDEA

B1: GFP-CAMSAP3 CKK (domain or fragment)
chain: GPRLYKEPSAKSNKFIIHNALSHCCLAGKVNEPQKNRILEEIEKSKANHFLILFRDSSCQFRALYTLSGETEELSRLAGYGPRTVTPAMVEGIYKYNSDRKRFTQIPAKTMSMSVDAFTIQGHLWQSKKPTTPKK
As for B1, the Kd was 2140 nM.
